PMC1976250 (Journal of neurochemistry, 2007)

T1: GST-GluR2 C-terminus (GST-R2C) (UniProt P19491 834-883)
T1 chain (looked up): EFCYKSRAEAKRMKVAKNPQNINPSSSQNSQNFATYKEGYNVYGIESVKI


Tests used:
[1] = target: GST-PICK1 (protein interacting with C-kinase 1) (UniProt Q9EP80 1-416); experiment: pull-down
[2] = target: T1, GST-GluR2 C-terminus (GST-R2C); experiment: pull-down

GST-PICK1 (protein interacting with C-kinase 1), sequence (Q9EP80 whole entry): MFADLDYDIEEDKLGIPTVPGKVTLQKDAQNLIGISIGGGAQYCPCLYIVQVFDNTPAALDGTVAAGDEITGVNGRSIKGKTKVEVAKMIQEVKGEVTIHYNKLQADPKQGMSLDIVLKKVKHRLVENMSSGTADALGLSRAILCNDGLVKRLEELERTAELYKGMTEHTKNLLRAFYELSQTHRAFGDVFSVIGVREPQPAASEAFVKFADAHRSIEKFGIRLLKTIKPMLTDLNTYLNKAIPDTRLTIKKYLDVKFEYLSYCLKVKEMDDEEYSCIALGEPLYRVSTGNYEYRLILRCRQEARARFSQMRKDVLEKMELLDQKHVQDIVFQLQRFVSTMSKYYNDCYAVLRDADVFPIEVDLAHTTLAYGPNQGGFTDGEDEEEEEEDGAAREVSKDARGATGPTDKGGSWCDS

fold increase in binding at 15 μmol/L free Ca2+ compared with zero free Ca2+ [1] [fold]	binding at 15 μmol/L free Ca2+ relative to zero free Ca2+ [2] [%]	Binder
~7	–	his6β-SNAP (β soluble NSF attachment protein) (natural protein, UniProt P81126 1-298, looked up) MDNAGKEREAVQLMAEAEKRVKASHSFLRGLFGGNTRIEEACEMYTRAANMFKMAKNWSAAGNAFCQAAKLHMQLQSKHDSATSFVDAGNAYKKADPQEAINCLNAAIDIYTDMGRFTIAAKHHITIAEIYETELVDIEKAIAHYEQSADYYKGEESNSSANKCLLKVAAYAAQLEQYQKAIEIFEQIGANTMDNPLLKYSAKDYFFKAALCHFIVDELNAKLALEKYEEMFPAFTDSRECKLLKKLLEAHEEQNSEAYTEAVKEFDSISRLDQWLTTMLLRIKKSIQGDGEGDGDLK
–	85	his6D142A NSF (enzyme, UniProt P18708 1-744, looked up) MAGRSMQAARCPTDELSLSNCAVVSEKDYQSGQHVIVRTSPNHKYIFTLRTHPSVVPGSVAFSLPQRKWAGLSIGQEIEVALYSFDKAKQCIGTMTIEIDFLQKKNIDSNPYDTDKMAAEFIQQFNNQAFSVGQQLVFSFNAKLFGLLVKDIEAMDPSILKGEPASGKRQKIEVGLVVGNSQVAFEKAENSSLNLIGKAKTKENRQSIINPDWNFEKMGIGGLDKEFSDIFRRAFASRVFPPEIVEQMGCKHVKGILLYGPPGCGKTLLARQIGKMLNAREPKVVNGPEILNKYVGESEANIRKLFADAEEEQRRLGANSGLHIIIFDEIDAICKQRGSMAGSTGVHDTVVNQLLSKIDGVEQLNNILVIGMTNRPDLIDEALLRPGRLEVKMEIGLPDEKGRLQILHIHTARMRGHQLLSADVDIKELAVETKNFSGAELEGLVRAAQSTAMNRHIKASTKVEVDMEKAESLQVTRGDFLASLENDIKPAFGTNQEDYASYIMNGIIKWGDPVTRVLDDGELLVQQTKNSDRTPLVSVLLEGPPHSGKTALAAKIAEESNFPFIKICSPDKMIGFSETAKCQAMKKIFDDAYKSQLSCVVVDDIERLLDYVPIGPRFSNLVLQALLVLLKKAPPQGRKLLIIGTTSRKDVLQEMEMLNAFSTTIHVPNIATGEQLLEALELLGNFKDKERTTIAQQVKGKKVWIGIKKLLMLIEMSLQMDPEYRVRKFLALLREEGASPLDFD
